PMC5630700 (2017)

B1: sdAb A–Gaussia luciferase fusion (glucibody, pecan35) (VHH)
VHH: EVKLQESGGGLVQAGESLRLSCAVPPEVFDIRTVAWYRQVPLGKGRELLSSITPWNKTTYEDSVKDRFTISRDNAKYTVYLQMNDLKPEDTAVYYCAQGWGIASMRYWGQGTQVTVSS
B2: sdAb B–Gaussia luciferase fusion (glucibody, pecan35) (VHH)
VHH: KVQLQESGGGLVQAGGSLRLSCAASGGTFSINTLGWYRRAPGKEREFVARISSGGITRYADSVKGRFTISRDNGKNTVYLDMNSLKPEDTAVYYCMYRNWGGGLDVYWGQGTQVTVSS
B3: sdAb C–Gaussia luciferase fusion (glucibody, pecan35) (VHH)
VHH: KVQLQESGGGLVQVGGSLRLSCKASGFTFRSSAMGWYRRAPGKQRELVASLTTTGTADYGDFVKGRFTISRDNAENTVDLHMNSLKPEDTAVYYCHEDPYGMESLRYWGQGTQVTVSS

target: mbp-NP600 fusion protein (Marburg virus Musoke, UniProt P27588 601-695); experiment: ELISA
Sequence (P27588 601-695): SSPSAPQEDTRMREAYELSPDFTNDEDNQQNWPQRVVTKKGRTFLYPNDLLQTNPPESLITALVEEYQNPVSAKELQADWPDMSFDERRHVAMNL

| Binder | EC50 |
| --- | --- |
| B1 | 14.1 nM |
| B2 | 162 nM |
| B3 | 11.9 nM |

target: purified recombinant MARV (Marburg Musoke) nucleoprotein polymer (Marburg virus Musoke, UniProt P27588 1-695); experiment: ELISA
Sequence (P27588 whole entry): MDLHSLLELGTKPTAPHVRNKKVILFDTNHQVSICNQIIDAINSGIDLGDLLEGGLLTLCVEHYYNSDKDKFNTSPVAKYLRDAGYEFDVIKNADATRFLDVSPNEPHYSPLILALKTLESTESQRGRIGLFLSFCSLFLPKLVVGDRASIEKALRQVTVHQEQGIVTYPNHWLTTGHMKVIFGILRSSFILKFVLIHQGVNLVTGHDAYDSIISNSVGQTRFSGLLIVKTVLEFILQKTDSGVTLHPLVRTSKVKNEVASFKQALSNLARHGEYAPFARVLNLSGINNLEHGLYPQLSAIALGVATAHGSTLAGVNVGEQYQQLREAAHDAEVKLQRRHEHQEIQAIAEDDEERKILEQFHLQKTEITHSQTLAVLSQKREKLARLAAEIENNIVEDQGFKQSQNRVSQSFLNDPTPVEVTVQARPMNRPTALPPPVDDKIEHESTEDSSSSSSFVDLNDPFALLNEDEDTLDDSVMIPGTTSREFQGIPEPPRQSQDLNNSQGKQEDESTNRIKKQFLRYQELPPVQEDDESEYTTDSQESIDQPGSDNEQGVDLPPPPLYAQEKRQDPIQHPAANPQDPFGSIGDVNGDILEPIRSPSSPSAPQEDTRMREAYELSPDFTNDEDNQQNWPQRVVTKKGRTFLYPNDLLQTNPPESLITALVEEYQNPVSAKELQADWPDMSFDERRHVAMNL

| Binder | EC50 |
| --- | --- |
| B1 | 2.8 nM |
| B2 | 10.8 nM |
| B3 | 4.1 nM |
